These results are taken from patent US20240376224A1 (University of California, published 2024).

Test [1] deals with T1, c-CDCP1-Fc (Cut 2) (human, UniProt Q9H5V8 30-368; Q9H5V8 369-667).
T1 construct: Co-transfection of NTF and CTF-Fc plasmids; not shown: Fc domain
T1 sequence 1: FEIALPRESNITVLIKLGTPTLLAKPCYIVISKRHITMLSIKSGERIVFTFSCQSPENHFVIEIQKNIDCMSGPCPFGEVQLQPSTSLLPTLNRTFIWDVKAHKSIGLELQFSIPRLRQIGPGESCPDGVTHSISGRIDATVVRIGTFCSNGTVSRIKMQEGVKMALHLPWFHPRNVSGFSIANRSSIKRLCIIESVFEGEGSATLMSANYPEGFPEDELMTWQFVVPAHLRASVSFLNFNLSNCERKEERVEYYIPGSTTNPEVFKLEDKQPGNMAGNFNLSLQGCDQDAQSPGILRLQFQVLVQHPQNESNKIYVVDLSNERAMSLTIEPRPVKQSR
T1 sequence 2: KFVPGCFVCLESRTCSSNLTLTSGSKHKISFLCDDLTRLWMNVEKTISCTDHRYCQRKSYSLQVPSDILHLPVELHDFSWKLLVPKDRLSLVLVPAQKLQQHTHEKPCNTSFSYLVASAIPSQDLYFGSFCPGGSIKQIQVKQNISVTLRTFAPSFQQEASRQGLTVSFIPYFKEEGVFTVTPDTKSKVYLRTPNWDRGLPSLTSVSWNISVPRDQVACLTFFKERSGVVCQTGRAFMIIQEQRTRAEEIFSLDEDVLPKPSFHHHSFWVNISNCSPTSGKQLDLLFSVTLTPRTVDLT
Nature of the test: BLI (Octet RED384) on c-CDCP1-Fc (Cut2); antibody concentration not given. The method, then: BLI experiments were performed using an Octet RED384 instrument (ForteBio). Biotinylated proteins were immobilized on a streptavidin (SA) biosensor and His-tagged proteins were immobilized on a Ni-NTA biosensor. Different concentrations of analyte in PBS pH 7.4+0.05% Tween-20+0.2% BSA (PBSTB) were used as analyte. Affinities (KDS) were calculated from a global fit (1:1) of the data using the Octet RED384 software.
Furthermore, variants of CL03 were evaluated for binding to c-CDCP1-Fc (Cut2) by BLI assays using an Octet RED384 instrument (ForteBio) (FIG. 16A) using a procedure as generally described in Example 1. The variants also were evaluated by SEC-based analysis (FIG. 16B) as generally described in Example 1. The variants evaluated by BLI assays and SEC-based analysis included the variants referred to as IgG87, IgG89, IgG94, IgG97, IgG101 (CL03 IgG H1-NtoD H3-MtoA), and IgG102.

Test [2] addresses T2, mouse c-CDCP1 on Fc1245 cells (mouse) (UniProt Q5U462).
T2 sequence 1: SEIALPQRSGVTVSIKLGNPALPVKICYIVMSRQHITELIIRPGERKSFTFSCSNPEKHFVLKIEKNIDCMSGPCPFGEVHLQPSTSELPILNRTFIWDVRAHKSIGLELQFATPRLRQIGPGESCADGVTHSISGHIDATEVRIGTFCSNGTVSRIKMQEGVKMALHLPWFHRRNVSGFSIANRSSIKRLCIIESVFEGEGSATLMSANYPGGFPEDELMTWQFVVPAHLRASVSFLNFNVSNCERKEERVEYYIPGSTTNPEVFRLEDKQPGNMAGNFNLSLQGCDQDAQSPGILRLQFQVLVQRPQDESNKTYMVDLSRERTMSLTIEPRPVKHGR
T2 sequence 2: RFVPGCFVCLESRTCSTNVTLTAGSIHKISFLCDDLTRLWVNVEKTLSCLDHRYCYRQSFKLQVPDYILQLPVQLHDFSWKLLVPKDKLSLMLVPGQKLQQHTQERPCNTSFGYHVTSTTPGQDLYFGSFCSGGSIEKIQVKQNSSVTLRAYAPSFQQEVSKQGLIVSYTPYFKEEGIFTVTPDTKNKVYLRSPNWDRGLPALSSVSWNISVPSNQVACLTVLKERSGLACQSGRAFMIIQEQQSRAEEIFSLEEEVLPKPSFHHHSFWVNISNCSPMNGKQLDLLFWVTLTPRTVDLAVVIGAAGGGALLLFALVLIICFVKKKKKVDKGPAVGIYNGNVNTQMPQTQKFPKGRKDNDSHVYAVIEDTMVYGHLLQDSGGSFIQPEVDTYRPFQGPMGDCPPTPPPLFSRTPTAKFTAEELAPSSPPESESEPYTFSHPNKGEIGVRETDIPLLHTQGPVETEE
Briefly: flow cytometry on Fc1245 c-CDCP1 cells (FIG. 9B); FIG. 9B. In general terms: Flow cytometry measures light scatter and fluorescence of single cells or particles in a stream.

The target in test [3] is T3, mouse c-CDCP1 (recombinant cleaved mouse CDCP1) (mouse, UniProt Q5U462 30-368; Q5U462 369-666, limits assumed).
T3 construct: Mouse antigens made were c-CDCP1-Fc (Cut 1) and (Cut 2); also called mouse cleaved CDCP1; cleaved mCDCP1
T3 sequence 1: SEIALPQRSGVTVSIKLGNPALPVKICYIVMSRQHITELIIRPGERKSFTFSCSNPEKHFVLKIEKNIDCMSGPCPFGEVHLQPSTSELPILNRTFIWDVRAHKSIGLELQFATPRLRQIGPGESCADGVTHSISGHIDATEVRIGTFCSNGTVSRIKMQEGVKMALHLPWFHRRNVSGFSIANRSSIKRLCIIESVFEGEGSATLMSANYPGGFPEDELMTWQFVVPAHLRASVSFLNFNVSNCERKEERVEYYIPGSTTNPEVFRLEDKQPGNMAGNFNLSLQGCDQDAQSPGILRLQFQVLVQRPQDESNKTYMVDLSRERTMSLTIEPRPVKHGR
T3 sequence 2: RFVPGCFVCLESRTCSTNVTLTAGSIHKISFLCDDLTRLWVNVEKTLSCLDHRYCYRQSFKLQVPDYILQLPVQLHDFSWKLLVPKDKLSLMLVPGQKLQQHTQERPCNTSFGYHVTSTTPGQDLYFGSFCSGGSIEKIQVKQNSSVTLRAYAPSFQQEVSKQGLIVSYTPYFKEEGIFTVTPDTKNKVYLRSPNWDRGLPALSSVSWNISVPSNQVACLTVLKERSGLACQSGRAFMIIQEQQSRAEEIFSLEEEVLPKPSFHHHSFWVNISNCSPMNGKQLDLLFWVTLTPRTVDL
Briefly: BLI (Octet), table of binding affinities to mCDCP1. For orientation: In BLI a coated tip is dipped into the sample, and binding shifts an interference pattern.

B1: IgG102 (antibody, V domains shown)
VH: EVQLVESGGGLVQPGGSLRLSCAASGFDFSSYSIHWVRQAPGKGLEWVASSYPYSGSTYYADSVKGRFTISADTSKNTAYLQMNSLRAEDTAVYYCARQSHSYYSHTWWVSYGMDYWGQGTLVTVSS
VL: DIQMTQSPSSLSASVGDRVTITCRASQSVSSAVAWYQQKPGKAPKLLIYSASSLYSGVPSRFSGSRSGTDFTLTISSLQPEDFATYYCQQSGQRPITFGQGTKVEIK
For the molecule B1, the binding result in test [1] is “binds”.

B2: IgG 58 (antibody, V domains shown)
VH: EVQLVESGGGLVQPGGSLRLSCAASGFNVYSYSIHWVRQAPGKGLEWVASISSSSGSTSYADSVKGRFTISADTSKNTAYLQMNSLRAEDTAVYYCARYYWDPWQYASYSYLAFDYWGQGTLVTVSS
VL: MTQSPSSLSASVGDRVTITCRASQSVSSAVAWYQQKPGKAPKLLIYSASSLYSGVPSRFSGSRSGTDFTLTISSLQPEDFATYYCQQTYSGPITFGQGTKVEIKR
notes: Mouse cleaved-CDCP1-specific antibody; also called Ab58; IgG 0058
For orientation: EC50 means the concentration giving half of the maximal effect. A low value points to greater potency. As a reminder, the Kd is the free concentration of one partner at which half of the binding sites on the other are occupied at equilibrium, for simple one-to-one binding. Consider B2, for which the EC50 in test [2] was determined as 6.9 nM. Further, the Kd in test [3] was 0.8 nM.
